Data: publication doi:10.1101/2025.10.14.682262
Where a chain is given by its changes, count along the chain named. Like-named read-outs stand apart in the source and are kept apart here.

Assays:
Test in all cases: EMSA
PAN (…) WT [1] = target: T1, PAN (…) WT (Arabidopsis thaliana, UniProt Q9SX27 1-452)
T1 sequence: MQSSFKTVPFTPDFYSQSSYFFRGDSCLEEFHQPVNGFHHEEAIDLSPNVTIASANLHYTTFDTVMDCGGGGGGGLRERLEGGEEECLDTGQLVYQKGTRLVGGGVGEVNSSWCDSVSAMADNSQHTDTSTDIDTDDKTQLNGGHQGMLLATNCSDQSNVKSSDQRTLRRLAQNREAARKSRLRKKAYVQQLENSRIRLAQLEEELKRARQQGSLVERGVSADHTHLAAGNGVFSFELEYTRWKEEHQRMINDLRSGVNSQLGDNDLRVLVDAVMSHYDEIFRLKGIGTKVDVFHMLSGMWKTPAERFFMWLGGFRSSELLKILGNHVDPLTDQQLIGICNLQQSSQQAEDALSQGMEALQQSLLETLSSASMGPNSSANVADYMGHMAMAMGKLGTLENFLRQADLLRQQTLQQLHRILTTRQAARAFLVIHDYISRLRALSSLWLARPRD

PAN 5 Cys to Ser = target: T2, PAN 5 Cys to Ser (Arabidopsis thaliana, UniProt Q9SX27 1-452, C27S;C68S;C87S;C114S;C154S)
T2 sequence: T1 sequence with C27S, C68S, C87S, C114S, C154S

PAN 6 Cys to Ser = target: T3, PAN 6 Cys to Ser (Arabidopsis thaliana, UniProt Q9SX27 1-452, C27S;C68S;C87S;C114S;C154S;C340S)
T3 sequence: T1 sequence with C27S, C68S, C87S, C114S, C154S, C340S

PAN (…) WT [2] = target: T1, PAN (…) WT; remark: listed apart in the source

B1: TGACGT WT probe (dsDNA)
DNA 1: ATCAGATCTAATTGACGTGATAGCATATAGA
DNA 2: TCTATATGCTATCACGTCAATTAGATCTGAT
binding result (PAN (…) WT [1]): binds
binding result (PAN 5 Cys to Ser): binds
binding result (PAN 6 Cys to Ser): binds

B2: TGATTT mutated probe (M) (dsDNA)
DNA 1: B1 DNA 1 with C16T, G17T
DNA 2: B1 DNA 2 with C15A, G16A
binding result (PAN (…) WT [2]): no binding
